Assay results from IntAct's records for PubMed 36376753.

B1: SNF1-related protein kinase catalytic subunit alpha KIN10 (Arabidopsis thaliana (Mouse-ear cress)), Q38997 (parent)
chain: MDGSGTGSRSGVESILPNYKLGRTLGIGSFGRVKIAEHALTGHKVAIKILNRRKIKNMEMEEKVRREIKILRLFMHPHIIRLYEVIETPTDIYLVMEYVNSGELFDYIVEKGRLQEDEARNFFQQIISGVEYCHRNMVVHRDLKPENLLLDSKCNVKIADFGLSNIMRDGHFLKTSCGSPNYAAPEVISGKLYAGPEVDVWSCGVILYALLCGTLPFDDENIPNLFKKIKGGIYTLPSHLSPGARDLIPRMLVVDPMKRVTIPEIRQHPWFQAHLPRYLAVPPPDTVQQAKKIDEEILQEVINMGFDRNHLIESLRNRTQNDGTVTYYLILDNRFRASSGYLGAEFQETMEGTPRMHPAESVASPVSHRLPGLMEYQGVGLRSQYPVERKWALGLQSRAHPREIMTEVLKALQDLNVCWKKIGHYNMKCRWVPNSSADGMLSNSMHDNNYFGDESSIIENEAAVKSPNVVKFEIQLYKTRDDKYLLDLQRVQGPQFLFLDLCAAFLAQLRVL
partner: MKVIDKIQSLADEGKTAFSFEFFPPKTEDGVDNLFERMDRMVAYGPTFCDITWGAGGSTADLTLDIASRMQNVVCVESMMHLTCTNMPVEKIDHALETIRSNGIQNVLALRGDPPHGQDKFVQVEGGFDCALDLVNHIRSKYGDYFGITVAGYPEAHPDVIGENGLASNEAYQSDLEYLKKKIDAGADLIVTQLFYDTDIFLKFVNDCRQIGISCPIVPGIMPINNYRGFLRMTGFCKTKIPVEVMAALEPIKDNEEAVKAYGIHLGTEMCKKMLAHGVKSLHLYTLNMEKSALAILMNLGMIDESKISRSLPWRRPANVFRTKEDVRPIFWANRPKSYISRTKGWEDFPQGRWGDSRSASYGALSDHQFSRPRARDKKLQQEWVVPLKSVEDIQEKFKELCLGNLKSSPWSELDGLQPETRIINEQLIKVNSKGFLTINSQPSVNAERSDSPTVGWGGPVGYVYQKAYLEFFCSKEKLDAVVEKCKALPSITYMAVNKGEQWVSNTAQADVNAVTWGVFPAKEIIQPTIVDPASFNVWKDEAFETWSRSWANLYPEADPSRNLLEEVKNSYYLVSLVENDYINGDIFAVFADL
B2: SNF1-related protein kinase catalytic subunit alpha KIN10 (Arabidopsis thaliana (Mouse-ear cress)), Q38997 (parent)
chain: B1 chain
partner: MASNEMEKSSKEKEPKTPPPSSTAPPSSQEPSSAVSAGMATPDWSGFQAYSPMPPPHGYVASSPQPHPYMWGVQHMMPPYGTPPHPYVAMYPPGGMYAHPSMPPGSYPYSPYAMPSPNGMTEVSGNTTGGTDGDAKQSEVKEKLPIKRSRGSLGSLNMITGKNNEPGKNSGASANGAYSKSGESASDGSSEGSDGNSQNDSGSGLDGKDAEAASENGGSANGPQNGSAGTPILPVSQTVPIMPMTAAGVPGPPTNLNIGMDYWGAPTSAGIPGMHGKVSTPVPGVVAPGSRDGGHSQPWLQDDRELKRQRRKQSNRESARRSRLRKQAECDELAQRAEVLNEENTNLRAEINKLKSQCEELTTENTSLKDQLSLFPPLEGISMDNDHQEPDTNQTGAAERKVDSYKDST
B3: SNF1-related protein kinase catalytic subunit alpha KIN10 (Arabidopsis thaliana (Mouse-ear cress)), Q38997 (parent)
chain: B1 chain
partner: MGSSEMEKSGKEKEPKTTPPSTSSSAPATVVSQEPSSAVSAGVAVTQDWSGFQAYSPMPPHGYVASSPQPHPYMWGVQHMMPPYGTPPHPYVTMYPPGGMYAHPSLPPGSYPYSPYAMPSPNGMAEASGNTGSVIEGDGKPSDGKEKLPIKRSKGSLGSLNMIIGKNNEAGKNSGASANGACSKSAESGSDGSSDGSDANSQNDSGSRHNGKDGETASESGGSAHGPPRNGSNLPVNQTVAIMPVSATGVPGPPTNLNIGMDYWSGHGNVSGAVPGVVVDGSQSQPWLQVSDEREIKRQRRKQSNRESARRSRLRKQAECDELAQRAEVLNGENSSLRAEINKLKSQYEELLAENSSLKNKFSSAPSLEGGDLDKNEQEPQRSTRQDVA
B4: SNF1-related protein kinase catalytic subunit alpha KIN10 (Arabidopsis thaliana (Mouse-ear cress)), Q38997 (parent)
chain: B1 chain
partner: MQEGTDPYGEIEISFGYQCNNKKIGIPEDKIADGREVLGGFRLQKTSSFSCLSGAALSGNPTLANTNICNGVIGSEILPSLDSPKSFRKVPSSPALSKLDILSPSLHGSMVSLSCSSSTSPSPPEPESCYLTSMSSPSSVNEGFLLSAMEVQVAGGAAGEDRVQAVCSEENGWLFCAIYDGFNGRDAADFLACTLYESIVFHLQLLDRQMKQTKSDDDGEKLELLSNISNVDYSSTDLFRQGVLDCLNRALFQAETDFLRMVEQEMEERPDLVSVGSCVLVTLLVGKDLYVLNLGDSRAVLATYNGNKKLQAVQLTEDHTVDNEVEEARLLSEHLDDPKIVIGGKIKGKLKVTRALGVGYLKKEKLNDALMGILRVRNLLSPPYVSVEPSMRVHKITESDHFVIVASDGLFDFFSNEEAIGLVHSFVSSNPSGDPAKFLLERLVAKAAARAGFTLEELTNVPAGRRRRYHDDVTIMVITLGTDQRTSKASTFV

Variants of: B1
Conditions: with mthr2_arath MTHFR2, O80585

Row | Variant | effect of a mutation on the interaction
1 | K48M | disrupting interaction strength

Variants of: B2
Conditions: with bzp16_arath BZIP16, Q501B2

Row | Variant | effect of a mutation on the interaction
2 | K48M | disrupting interaction strength

Variants of: B3
Conditions: with bzp68_arath BZIP68, Q84LG2

Row | Variant | effect of a mutation on the interaction
3 | K48M | disrupting interaction strength

Variants of: B4
Conditions: with p2c40, Q9LUS8

Row | Variant | effect of a mutation on the interaction
4 | K48M | disrupting interaction strength
